Experimental data as given in the DeepSol protein solubility set.

Assay: soluble on expression in E. coli; label from the status in PepcDB or PDB records

| Sequence | soluble on expression in E. coli |
| --- | --- |
| MRWAIVRFPGANCDEDARFALEKAGIRAEFVWHTERDLRGFDGVFLPGGFSYGDYLRAGALAAKSPVMEAVRRFAEEGRYVVGVCNGFQILTEAGLLPGALLANLNLHFTCKEVGVRVERNDLPFTRLYPRGQVLRLPIAHGEGRYYADPETLARLEGEGLVVFRYAPLKDEADYNPNGSLHDIAGIVSEKGNVLGMMPHPERAVDEVLGNTDGLPFFLGLVKEVAR | soluble |
| MGSDKIHHHHHHMPSPIDLHSHSTVSDGLLAPEALVAHAAEQGVKVLSLTDHDDTSGLAPAASAAAGHGMEFINGVEISVTWRRKTIHVVGLRVDPDHGPLREGLEKIRAGRHLRAENIAASLEKFGIKGSLEGAYAHARQGIIGRAHFARYLIDQGYASNMKAIFKRYLVKGKPGYVEHHWATLEEVVAWINGSGGVAVLAHPGRYDIGRSNMLLLLEEFRNLGGTAIEVVTGSHNADQFQEYAKLAHMFGLKSSMGSDYHGPGHGNIEMGRLPDLPRGCIPVWQDWPEIRSLNN | not soluble |
| MSLASNVLLQASRLGEMVIKRGGATGLMVHRDTKENNLNVKFKFTSENQERIKAIMDIYPEGHKAGALIPLLDLAQRQHGWLPISAMHEVAKILEVPRMRAYEVATFYTMFNRQPVGKYFLQVCATTPCMLRGAETITETIEKKLGIHAGETTKDGLFTLAEVECLGACVNAPMIQINDDYFEDLTPKDVNEILDDLKAGRKPAAGPRSGRLAAEPFGELTSLKETPPGPGFGLQAALK | not soluble |
| MSLRIVFKIGSNLLETDEGDIDLSFLSKLAEGIKKLHSFGDKVLIVSSGAVLSGAKKLGIKEKPKDLTLKQALASVGQSYLMHLYDTIFSNYGLKVGQVLLTKDVFSKEKEERFKNAKSTLEKLLELGVVPVINENDAVAVEELVFGDNDFLAVYVSFMVNADLLVIFSSAGGLKDDKDRIIPVVEDIEKVFKYVRGTGTSFGTGGMRSKLEATRLATTLNIPVIITSKEENILDLRNLKTKGTLFKPSKRKLRNALKVIATLEEPKGIIVVDRGAQEALKAGKSLLPAGVVSVQGNFKRGDVVSIQNEEGLIIGKGKVNFSSEEIEKIKGLKTSEVRKLLNTTKDEVIHRDNMVIFLEGHHHHHH | not soluble |
| EKPANRQQTLEILAQHIEMDGVRQFLSKSLFKNEDHMAWRFNVDSLLSNYAEIIGWQDIAPTEIPTLFIKGGDSDYLMPEHQPSVQRQFKQAKAHIIANTGHWLHAEKPAEVMRVIRKYISS | not soluble |
| MSAQKPGLHPRNRHQHRYDLAALCQTTPELTSFLIRTPAGEQSVDFANPQAVKALNKALLAHFYAVTHWDIPPGFLCPPVPGRADYIHHLADLLGETTGSIPAQATILDVGVGANCIYPLIGVHEYGWRFTGSEVSDAAMSSAQAIIQANTGLSRAIRLRRQKDPAAIFTGIIHKNEFYDATLCNPPFHDSAAAARAGSERKRRNLGQNKDDALNFGGQQQELWCEGGEVAFIKKMIAESQSFRRQVLWFTTLVSRGENLPPLYRALTEAGAVKVVKKEMAQGQKQSRFIAWTFMDDDQRRRFITRKR | not soluble |
| NEPVAVIGVGCRFPGDIDGPERLWDFLTEKKCAITAYPDRGFTNAGTFAESGGFLKDVAGFDNRFFDIPPDEALRMDPQQRLLLEVSWEALEHAGIIPESLRLSRTGVFVGVSSTDYVRLVSASAQQKSTIWDNTGGSSSIIANRISYFLDIQGPSIVIDTACSSSLVAVHLACRSLSTWDCDIALVGGTNVLISPEPWGGFREAGILSQTGCCHAFDKSADGMVRGEGCGVIVLQRLSDARLEGRRILAILTGSAVNQDGKSNGIMAPNPSAQIGVLENACKSARVDPLEIGYVEAHGTGTSLGDRIEAHALGMVFGRKRPGSGPLMIGSIKPNIGHLEGAAGIAGLIKAVLMVERGSLLPSGGFTEPNPAIPFTELGLRVVDELQEWPVVAGRPRRAGVSSFGFGGTNAHVIVEEA | soluble |
| MGSDKIHHHHHHMKKTYLFSPGPVMVTDKVRNSLLHYDICHRGNEFMNLFKDTQQKINKLYNATSNYYSLIVSGSGTSVNECVLSSIFDKEDAVLLVSNGVFGERLEEILSTYNVKTYKPNFEWAEYPDLDILEKYIIENSDIKVIAMVFHETSSGMINPVPELGKLAKKYNKIFFVDAISASAGEYIDVEEFNIDIITGVGGKALGAFPGSAYLCAKESILQNIKENQCKNVYLNLYKHYKVAKSSSQTPNTPNVTLIFALNEALTEFLEDDSKIERYKECSAILRNGMEELGLTFLLPDKYMSNTVTSVFLPKEINVNEFILGLERESGYVVYPGKGKFLDANIFQVANMGEIYPEDCYKFLDILKSKLEIKKVI | not soluble |
| SAEGDAGSDQRQNEEIEAMAAIYGEEWCVIDDCAKIFCIRISDDIDDPKWTLCLQVMLPNEYPGTAPPIYQLNAPWLKGQERADLSNSLEEIYIQNIGESILYLWVEKIRDVLIQKSQMTEPGPDVKKKTEEEDVECEDDLILACQPESSVKALDFDISETRTEVEVEELPPIDHGIPITDRRSTFQAHLAPVVCPKQVKMVLSKLYENKKIASATHNIYAYRIYCEDKQTFLQDCEDDGETAAGGRLLHLMEILNVKNVMVVVSRWYGGILLGPDRFKHINNCARNILVEKNYTNSPEESSKALGKNKKVRKDKKRNEH | soluble |
| MDHAPERFDATPPAGEPDRPALGVLELTSIARGITVADAALKRAPSLLLMSRPVSSGKHLLMMRGQVAEVEESMIAAREIAGAGSGALLDELELPYAHEQLWRFLDAPVVADAWEEDTESVIIVETATVCAAIDSADAALKTAPVVLRDMRLAIGIAGKAFFTLTGELADVEAAAEVVRERCGARLLELACIARPVDELRGRLFF | not soluble |
| MSQSLFSLAFGVGTQNRQEAWLEVFYALPLLKPSSEIVAAVAPILGYAAGNQALTFTSQQAYQLADALKGIDAAQSALLSRLAESQKPLVATLLAEDAAPSSTAEAYLKLHLLSHRLVKPHAVNLSGIFPLLPNVAWTNIGAVDLAELAELQLEARLKGKLLEVFSVDKFPKMTDYVVPAGVRIADTARVRLGAYIGEGTTVMHEGFVNFNAGTEGPGMIEGRVSAGVFVGKGSDLGGGCSTMGTLSGGGNIVISVGEGCLIGANAGIGIPLGDRNIVEAGLYITAGTKVALLDEQNALVKVVKARDLAGQPDLLFRRNSQNGAVECK | not soluble |
| MGSDKIHHHHHHMLKIGKRNPNKPLVIENDQVVSLYFDARGVQSTMLRHDPYALALGYTRTMMGFLLFRPSPCRISMIGLGGGSLAKYCYRHLPDTAITAIEINPDVIALRDHFHVPRDDGRFTVVCADGAQYVAVPGHRPDVLLVDGFNADGLPARLGSSAFYEACRRRLSDDGVLVANLVTDEPDFHRYLRALWEVFAGAVALAPSEGSEHNVTVFAWKGAGGLPSFAAMLDRARALQARHAVNLHATATRIEYGKKFNWSRYGRTA | not soluble |
| MGSDKIHHHHHHMSVHSEVLHALLKDPFIQKLIDAEPVFWANSGKKEGPLPRADEWATEIAEAEKRMQRFAPYIAEVFPETKGAKGIIESPLFEVQHMKGKLEAAYQQPFPGRWLLKCDHELPISGSIKARGGIYEVLKYAENLALQEGMLQETDDYRILQEERFTGFFSRYSIAVGSTGNLGLSIGIIGAALGFRVTVHMSADAKQWKKDLLRQKGVTVMEYETDYSEAVNEGRRQAEQDPFCYFIDDEHSRQLFLGYAVAASRLKTQLDCMNIKPSLETPLFVYLPCGVGGGPGGVAFGLKLLYGDDVHVFFAEPTHSPCMLLGLYSGLHEKISVQDIGLDNQTAADGLAVGRPSGFVGKLIEPLLSGCYTVEDNTLYTLLHMLAVSEDKYLEPSALAGMFGPVQLFSTEEGRRYAQKYKMEHAVHVVWGTGGSMVPKDEMAAYNRIGADLLKKRNGK | not soluble |
| MKYVLIQATDNGILRRAECGGAVTALFKYLLDKKLVDGVLALKRGEDVYDGIPTFITNSNELVETAGSLHCAPTNFGKLIAKYLADKKIAVPAKPCDAMAIRELAKLNQINLDNVYMIGLNCGGTISPITAMKMIELFYEVNPLDVVKEEIDKGKFIIELKNGEHKAVKIEELEEKGFGRRKNCQRCEIMIPRMADLACGNWGAEKGWTFVEICSERGRKLVEDAEKDGYIKIKQPSEKAIQVREKIESIMIKLAKKFQKKHLEEEYPSLEKWKKYWNRCIKCYGCRDNCPLCFCVECSLEKDYIEEKGKIPPNPLIFQGIRLSHISQSCINCGQCEDACPMDIPLAYIFHRMQLKIRDTLGYIPGVDNSLPPLFNIERLEHHHHHH | soluble |
